From patent publication US20220153807A1 (published 2022)

Assays:
[1] = molecular target: T1, MAGE-A3 peptide on HLA-A*02:01 (human); assay: as above, co-transfected with inhibitor construct C2106, 5 uM NY-ESO-1 peptide; full-length, on cells
T1 peptide: FLWGPRALV

[2] = molecular target: T1, MAGE-A3 peptide on HLA-A*02:01; assay: as above, co-transfected with inhibitor construct C2107, 5 uM NY-ESO-1 peptide; full-length, on cells
[3] = molecular target: T1, MAGE-A3 peptide on HLA-A*02:01; assay: NFAT-luciferase Jurkat cells, CT139 alone; T2 cells with titrated MAGE-A3 peptide and 50 uM NY-ESO-1 peptide; full-length, on cells
[4] = molecular target: T1, MAGE-A3 peptide on HLA-A*02:01; assay: as above, co-transfected with the inhibitory CAR C1761 (NY-ESO-1 scFv, LILRB1), 50 uM NY-ESO-1 peptide; reduced against CT139 alone; full-length, on cells

B1: CT139, MAGE-A3 pep1 TCR (both alpha and beta chains) (TCR, V domains shown)
Valpha: AQSVDQPDAHVTLSEGASLELRCSYSYSAAPYLFWYVQYPGQSLQFLLKYITGDTVVKGTKGFEAEFRKSNSSFNLKKSPAHWSDSAKYFCALEGPDTGNYKYVFGAGTRLKVIA
Vbeta: DAGVTQTPRHEVAEKGQTIILKCEPVSGHNDLFWYRQTKIQGLELLSYFRSKSLMEDGGAFKDRFKAEMLNSSFSTLKIQPTEPRDSAVYLCASSFGTASAETLYFGSGTRLTVL
[1]
  EC50 of peptide: 40 nM
[2]
  EC50 of peptide: 100 nM
[3]
  EC50 of peptide: 20 nM
[4]
  EC50 of peptide: > 1000 nM
